Experimental data from US20160152733A1.
Where a chain is given by its changes, count along the chain named.

B1: Fab variant "huCD45R0_v1" (humanized, 4D5 framework with backmutations) (Fab, V domains shown, not shown: small tags and cut ends)
VH: EVQLVESGGGLVQPGGSLRLSCAFSGFSLTTYGIGVGWIRQAPGKGLEWLTHIWWNDNKYYADSVKGRFTISKDSSKNTVYLQMNSLRAEDTAVYYCLYGYTYWGQGTLVTVSS
VL: DIQMTQSPSSLSASVGDRVTITCRSSQSLLYSNGNTYLHWYQQKPGKAPKLLIYKLSNRFSGVPSRFSGSRSGTDFTLTISSLQPEDFATYYCSQSTHVPWTFGQGTKVEIKR
B2: Fab variant "huCD45R0_v2" (humanized, 4D5 framework with extended backmutations) (Fab, V domains shown, not shown: small tags and cut ends)
VH: B1 VH with E1Q, V2I, K66R
VL: B1 VL with I2V, Q3V, S7T, T22S, S65D, R71G
B3: Fab variant "muCD45R0" (chimeric Fab: variable regions of parental murine CD45R0 antibody clone UCHL1, human constant regions) (Fab, V domains shown, not shown: small tags and cut ends)
VH: QITLKESGPGILQPSQTLSLTCSFSGFSLTTYGIGVGWIRQPPGKGLEWLTHIWWNDNKYYNTALRSRLTISKDSSNNQVLLKIANVDTADTATYYCLYGYTYWGQGTLVTVSA
VL: DVVMTQTPLSLPVSLGDQASISCRSSQSLLYSNGNTYLHWYLQKPGQSPKLLIYKLSNRFSGVPDRFSGSGSGTDFTLKISRVEAEDLGVYFCSQSTHVPWTFGGGTKLEIKR
B4: Fab variant "huCD45R0_v3" (humanized, germline IGHV2-5*01 / IGKV2-30*01 framework with backmutations) (Fab, V domains shown, not shown: small tags and cut ends)
VH: QITLKESGPTLVKPTQTLTLTCTFSGFSLTTYGIGVGWIRQPPGKALEWLTHIWWNDNKYYSPSLKSRLTITKDSSKNQVVLTMTNMDPVDTATYYCLYGYTYWGQGTLVTVSA
VL: B3 VL with S14T, D17Q, Q18P, L42Q, K44R, K50R, L88V, F92Y

Assays:
[1] = biological target: human CD45R0 antigen (splice variant/isoform CD45R0 of CD45 antigen, PTPRC), cell-bound (human) (UniProt P08575); experiment: flow cytometry on human PBMC, from max. MFI; relative to muCD45R0 = 100%
[2] = biological target: human CD45R0 antigen (splice variant/isoform CD45R0 of CD45 antigen, PTPRC), cell-bound (human) (UniProt P08575); experiment: flow cytometry, indirect staining of human PBMC, Fab 1-10 µg/mL + anti-His-PE
[3] = biological target: human CD45R0 antigen (splice variant/isoform CD45R0 of CD45 antigen, PTPRC), cell-bound (human) (UniProt P08575); experiment: flow cytometry, human PBMC gated on living CD45RA-negative WBC, Fab 5 µg/mL + anti-His-PE
[4] = biological target: human CD45R0 antigen (splice variant/isoform CD45R0 of CD45 antigen, PTPRC), cell-bound (human) (UniProt P08575); experiment: flow cytometry on human PBMC, from median fluorescence at 5 µg/mL; relative to muCD45R0 = 100%
[5] = biological target: human CD45R0 antigen (splice variant/isoform CD45R0 of CD45 antigen, PTPRC), cell-bound (human) (UniProt P08575); experiment: flow cytometry on human PBMC, from max. MFI; muCD45R0 set to 100%
[6] = biological target: human CD45R0 antigen (splice variant/isoform CD45R0 of CD45 antigen, PTPRC), cell-bound (human) (UniProt P08575); experiment: flow cytometry on human PBMC, from median fluorescence at 5 µg/mL; muCD45R0 set to 100%
[7] = biological target: human CD45R0 antigen (splice variant/isoform CD45R0 of CD45 antigen, PTPRC), cell-bound (human) (UniProt P08575); experiment: flow cytometry on human T cells, from median fluorescence at 5 µg/mL; muCD45R0 set to 100%
[8] = biological target: human CD45R0 antigen (splice variant/isoform CD45R0 of CD45 antigen, PTPRC), cell-bound (human) (UniProt P08575); experiment: flow cytometry, biotinylated Fab 5 µg/mL on human CD3+ CD45RA- T cells, donor 1 (text: anti-Biotin-PE; table head: anti-HIS-PE)
[9] = biological target: human CD45R0 antigen (splice variant/isoform CD45R0 of CD45 antigen, PTPRC), cell-bound (human) (UniProt P08575); experiment: flow cytometry, biotinylated Fab 5 µg/mL on human CD3+ CD45RA- T cells, donor 2 (text: anti-Biotin-PE; table head: anti-HIS-PE)

Row | Binder | relative affinity (%) [1] [%] | max. mean fluorescence (anti-HIS-PE) [2] | median fluorescence (anti-HIS PE) [3] | relative affinity (%) [4] [%] | relative affinity (%) [5] [%] | relative affinity (%) [6] [%] | relative affinity (%) [7] [%] | median fluorescence, donor 1 [8] | median fluorescence, donor 2 [9]
1 | B1 | 8 | 3 |  |  |  |  |  |  | 
2 | B2 |  |  | 8 | 31 |  |  |  |  | 
3 | B3 |  | 37 | 26 |  | 100 | 100 | 100 | 8 | 21
4 | B4 |  |  | 43 | 165 |  |  |  | 9.5 | 24
